Tests used:
[1] = system: HIV-1/IIIB (CD4^+ ATH8 cells); test: HIV cytopathic effect inhibition assay in ATH8 cells (% protection); format: cell-based; conditions: additive alone, no test compound
Description: (§1) HIV Cytopathic Effect Inhibition Assay.
The HIV cytopathic effect inhibition assay was performed as previously described. (Mitsuya, H. & Broder, S. Proc. Nat. Acad. Sci. USA 1986, 83, 1911) Briefly, 200,000 target CD4^+ ATH8 cells were exposed to cell-free HIV-1/IIIB at a dose of 43 (or 1087 for compound 1g) TCID50 (50% tissue culture infectious dose) for 1 h, resuspended in 2 ml of fresh culture media containing interleukin 2, and cultured at 37° C. with or without test compounds in 5% CO2 -containing humidified air. On day 8 in culture, the viable cells were counted by using the dye exclusion method. All compounds, including inactives, were evaluated a minimum of two times in separate experiments. […] The % protection against the virus was determined by the following formula: 100 times [(the number of viable cells exposed to HIV-1 and cultured in the presence of the compound minus the number of viable cells exposed to HIV-1 and cultured in the absence of compound) divided by (the number of viable cells cultured alone minus the number of viable cells exposed to HIV-1 and cultured in the absence of the compound)]. The % toxicity of a compound on the target cells was determined by the following formula: 100 times [1 minus (the number of total viable cells cultured in the presence of the compound divided by the number of total viable cells cultured alone)]. […]

CD4^+ ATH8 cells = test: Toxicity on ATH8 target cells (% toxicity, dye exclusion); format: cell-based; conditions: additive alone, no test compound
Description: as §1
The HIV cytopathic effect inhibition assay was performed as previously described. […] On day 8 in culture, the viable cells were counted by using the dye exclusion method. All compounds, including inactives, were evaluated a minimum of two times in separate experiments. Data reported in Table II are from representative tests. The % protection against the virus was determined by the following formula: 100 times [(the number of viable cells exposed to HIV-1 and cultured in the presence of the compound minus the number of viable cells exposed to HIV-1 and cultured in the absence of compound) divided by (the number of viable cells cultured alone minus the number of viable cells exposed to HIV-1 and cultured in the absence of the compound)]. The % toxicity of a compound on the target cells was determined by the following formula: 100 times [1 minus (the number of total viable cells cultured in the presence of the compound divided by the number of total viable cells cultured alone)]. Calculated percentages equal to or less than zero are expressed as 0%.

B1: ADA: adenosine deaminase (adenosine aminohydrolase, EC 3.5.4.4) from calf intestinal mucosa (protein, UniProt P56658 2-363, looked up)
Adenosine deaminase: AQTPAFNKPKVELHVHLDGAIKPETILYYGRKRGIALPADTPEELQNIIGMDKPLSLPEFLAKFDYYMPAIAGCREAVKRIAYEFVEMKAKDGVVYVEVRYSPHLLANSKVEPIPWNQAEGDLTPDEVVSLVNQGLQEGERDFGVKVRSILCCMRHQPSWSSEVVELCKKYREQTVVAIDLAGDETIEGSSLFPGHVKAYAEAVKSGVHRTVHAGEVGSANVVKEAVDTLKTERLGHGYHTLEDATLYNRLRQENMHFEVCPWSSYLTGAWKPDTEHPVVRFKNDQVNYSLNTDDPLIFKSTLDTDYQMTKNEMGFTEEEFKRLNINAAKSSFLPEDEKKELLDLLYKAYGMPSPASAEQCL
[1]
  protection by additive alone (in words): neither influenced the viability nor protected infected ATH8 cells
CD4^+ ATH8 cells
  toxicity / viability effect of additive alone (in words): neither influenced the viability
